Where two headings read alike, the source gives them in different places.
Columns and labels:
[1] = molecular target: human GLP-1 (hGLP-1) receptor (human) (UniProt P43220)
[2] = molecular target: human GLP-1 (hGLP-1) receptor (human) (UniProt P43220); remark: listed apart in the source

Chain of human GLP-1 (hGLP-1) receptor (human) (P43220 24-463): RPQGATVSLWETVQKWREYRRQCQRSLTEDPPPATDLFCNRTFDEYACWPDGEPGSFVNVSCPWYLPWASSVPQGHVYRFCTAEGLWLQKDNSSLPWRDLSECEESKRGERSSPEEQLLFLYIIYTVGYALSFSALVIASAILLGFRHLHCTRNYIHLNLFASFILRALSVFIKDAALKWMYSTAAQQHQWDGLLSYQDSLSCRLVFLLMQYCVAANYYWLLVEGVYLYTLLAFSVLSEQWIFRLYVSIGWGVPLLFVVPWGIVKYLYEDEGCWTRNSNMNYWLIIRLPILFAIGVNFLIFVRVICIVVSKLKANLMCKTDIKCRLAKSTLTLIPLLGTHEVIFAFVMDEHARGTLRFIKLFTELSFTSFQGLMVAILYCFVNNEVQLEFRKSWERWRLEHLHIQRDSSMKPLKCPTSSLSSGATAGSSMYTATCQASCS

Substance	hGLP-1 cAMP* [1]	hGLP-1 cAMP* [2]
[Aib^2, Nle^14, β-Ala^29, Arg^30]Exendin-4(1-30)-NH2 (peptide)	90	–
[Aib^2,29, Nle^14, Arg^30]Exendin-4(1-30)-NH2 (peptide)	–	95
[Aib^2, Nle^14]Exendin-4(1-39)-NH2 (peptide)	62	–

From patent US20100256056A1
